Drawing on the supplement of paper PMC10567573, this text covers protein stability index for 94 variants.

The labels stand for the following.
B1: FAM164C (parent)
chain: YPHCTGISQQDPESDSQGQGNGLF
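Also: lentivirally expressed fusions sorted by FACS into six bins by GFP to DsRed ratio, PSI derived from sequencing read proportions per bin multiplied by bin number.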

The variants in this series derive from B1. The series can be described thus: protein stability index of a GFP-peptide fusion (GPS, HEK-293T) (PSI 1-6); higher = more stable. The settings on record: c terminus: a fixed tail appended.
Regarding YPHCTGIHQQDPESDSQGQGNGLF [S8H], the protein stability index is 3.65.

With YPHCTGIQQQDPESDSQGQGNGLF [S8Q], the protein stability index was found to be 3.95.

Regarding YPHCTGICQQDPESDSQGQGNGLF [S8C], the protein stability index is 3.11.

Consider YPHCTGILQQDPESDSQGQGNGLF [S8L], for which the protein stability index was 3.35.

For YPHCTGIKQQDPESDSQGQGNGLF [S8K], the protein stability index stood at 4.15.

For YPHCTGIIQQDPESDSQGQGNGLF [S8I], the protein stability index worked out at 3.59.

YPHCTGIDQQDPESDSQGQGNGLF [S8D]: the protein stability index turned out to be 3.91.

In the case of YPHCTGINQQDPESDSQGQGNGLF [S8N], the protein stability index came out at 3.39.

YPHCTGIYQQDPESDSQGQGNGLF [S8Y]: the protein stability index was 2.75.

Take YPHCTGIGQQDPESDSQGQGNGLF [S8G]: the protein stability index came out at 3.52.

Consider YPHCTGIAQQDPESDSQGQGNGLF [S8A], for which the protein stability index was determined as 3.51.

Take YPHCTGIPQQDPESDSQGQGNGLF [S8P]: the protein stability index was determined as 3.91.

With YPHCTGIWQQDPESDSQGQGNGLF [S8W], the protein stability index is 1.84.

Regarding YPHCTGIRQQDPESDSQGQGNGLF [S8R], the protein stability index was 3.57.

As for YPHCTGITQQDPESDSQGQGNGLF [S8T], the protein stability index turned out to be 3.74.

Regarding YPHCTGIVQQDPESDSQGQGNGLF [S8V], the protein stability index was determined as 3.73.

As for YPHCTGIFQQDPESDSQGQGNGLF [S8F], the protein stability index came out at 2.69.

With YPHCTGIMQQDPESDSQGQGNGLF [S8M], the protein stability index was determined as 3.33.

Consider YPHCTGIEQQDPESDSQGQGNGLF [S8E], for which the protein stability index is 4.17.

As to YPHCTGISYQDPESDSQGQGNGLF [Q9Y], the protein stability index was 3.11.

For YPHCTGISEQDPESDSQGQGNGLF [Q9E], the protein stability index was 3.89.

With YPHCTGISNQDPESDSQGQGNGLF [Q9N], the protein stability index worked out at 3.5.

Regarding YPHCTGISLQDPESDSQGQGNGLF [Q9L], the protein stability index worked out at 2.98.

With YPHCTGISKQDPESDSQGQGNGLF [Q9K], the protein stability index turned out to be 3.42.

With YPHCTGISAQDPESDSQGQGNGLF [Q9A], the protein stability index was found to be 4.06.

On to YPHCTGISPQDPESDSQGQGNGLF [Q9P], for which the protein stability index was found to be 3.67.

With YPHCTGISGQDPESDSQGQGNGLF [Q9G], the protein stability index turned out to be 3.85.

Turning to YPHCTGISHQDPESDSQGQGNGLF [Q9H], the protein stability index is 3.58.

With YPHCTGISSQDPESDSQGQGNGLF [Q9S], the protein stability index was found to be 3.97.

For the variant YPHCTGISIQDPESDSQGQGNGLF [Q9I], the protein stability index was 3.71.

Regarding YPHCTGISTQDPESDSQGQGNGLF [Q9T], the protein stability index turned out to be 3.63.

With YPHCTGISRQDPESDSQGQGNGLF [Q9R], the protein stability index turned out to be 3.68.

As for YPHCTGISDQDPESDSQGQGNGLF [Q9D], the protein stability index stood at 3.91.

YPHCTGISVQDPESDSQGQGNGLF [Q9V]: the protein stability index came to 3.19.

As for YPHCTGISCQDPESDSQGQGNGLF [Q9C], the protein stability index was found to be 3.43.

For the variant YPHCTGISWQDPESDSQGQGNGLF [Q9W], the protein stability index amounted to 2.48.

Turning to YPHCTGISMQDPESDSQGQGNGLF [Q9M], the protein stability index was 3.49.

YPHCTGISFQDPESDSQGQGNGLF [Q9F]: the protein stability index stood at 3.05.

Consider YPHCTGLSQQDPESDSQGQGNGLF [I7L], for which the protein stability index amounted to 3.9.

YPHCTGPSQQDPESDSQGQGNGLF [I7P]: the protein stability index was 4.18.

With YPHCTGHSQQDPESDSQGQGNGLF [I7H], the protein stability index was 4.

Turning to YPHCTGWSQQDPESDSQGQGNGLF [I7W], the protein stability index is 1.51.

YPHCTGVSQQDPESDSQGQGNGLF [I7V]: the protein stability index was determined as 3.82.

For YPHCTGASQQDPESDSQGQGNGLF [I7A], the protein stability index came to 4.04.

Turning to YPHCTGTSQQDPESDSQGQGNGLF [I7T], the protein stability index amounted to 3.95.

For the variant YPHCTGGSQQDPESDSQGQGNGLF [I7G], the protein stability index came out at 3.83.

Regarding YPHCTGNSQQDPESDSQGQGNGLF [I7N], the protein stability index came to 4.11.

Turning to YPHCTGCSQQDPESDSQGQGNGLF [I7C], the protein stability index stood at 3.56.

Consider YPHCTGESQQDPESDSQGQGNGLF [I7E], for which the protein stability index worked out at 4.68.

Consider YPHCTGFSQQDPESDSQGQGNGLF [I7F], for which the protein stability index worked out at 2.21.

With YPHCTGRSQQDPESDSQGQGNGLF [I7R], the protein stability index was found to be 3.94.

YPHCTGSSQQDPESDSQGQGNGLF [I7S]: the protein stability index stood at 3.86.

Take YPHCTGKSQQDPESDSQGQGNGLF [I7K]: the protein stability index was 3.56.

Turning to YPHCTGQSQQDPESDSQGQGNGLF [I7Q], the protein stability index was 4.01.

Turning to YPHCTGDSQQDPESDSQGQGNGLF [I7D], the protein stability index is 4.45.

Consider YPHCTGYSQQDPESDSQGQGNGLF [I7Y], for which the protein stability index worked out at 2.64.

As for YPHCTGMSQQDPESDSQGQGNGLF [I7M], the protein stability index came to 3.38.

For the variant YPHCPGISQQDPESDSQGQGNGLF [T5P], the protein stability index was 3.25.

YPHCKGISQQDPESDSQGQGNGLF [T5K]: the protein stability index came to 3.55.

On to YPHCMGISQQDPESDSQGQGNGLF [T5M], for which the protein stability index is 2.23.

Take YPHCRGISQQDPESDSQGQGNGLF [T5R]: the protein stability index turned out to be 2.71.

Take YPHCVGISQQDPESDSQGQGNGLF [T5V]: the protein stability index turned out to be 3.18.

Regarding YPHCQGISQQDPESDSQGQGNGLF [T5Q], the protein stability index was 3.89.

As for YPHCIGISQQDPESDSQGQGNGLF [T5I], the protein stability index turned out to be 3.34.

As to YPHCYGISQQDPESDSQGQGNGLF [T5Y], the protein stability index turned out to be 3.17.

On to YPHCLGISQQDPESDSQGQGNGLF [T5L], for which the protein stability index stood at 2.35.

As to YPHCNGISQQDPESDSQGQGNGLF [T5N], the protein stability index worked out at 3.32.

On to YPHCSGISQQDPESDSQGQGNGLF [T5S], for which the protein stability index was 3.53.

On to YPHCWGISQQDPESDSQGQGNGLF [T5W], for which the protein stability index turned out to be 1.68.

Consider YPHCTRISQQDPESDSQGQGNGLF [G6R], for which the protein stability index stood at 3.45.

For the variant YPHCTQISQQDPESDSQGQGNGLF [G6Q], the protein stability index was 3.58.

In the case of YPHCTYISQQDPESDSQGQGNGLF [G6Y], the protein stability index came out at 2.77.

As to YPHCTIISQQDPESDSQGQGNGLF [G6I], the protein stability index worked out at 3.25.

As to YPHCTDISQQDPESDSQGQGNGLF [G6D], the protein stability index worked out at 4.23.

Take YPHCTKISQQDPESDSQGQGNGLF [G6K]: the protein stability index is 3.23.

Turning to YPHCTAISQQDPESDSQGQGNGLF [G6A], the protein stability index was 3.53.

On to YPHCTLISQQDPESDSQGQGNGLF [G6L], for which the protein stability index is 3.25.

As to YPHCTPISQQDPESDSQGQGNGLF [G6P], the protein stability index came to 2.25.

For the variant YPHCTFISQQDPESDSQGQGNGLF [G6F], the protein stability index was 3.01.

Take YPHCTMISQQDPESDSQGQGNGLF [G6M]: the protein stability index was determined as 3.34.

For the variant YPHCTSISQQDPESDSQGQGNGLF [G6S], the protein stability index came to 3.82.

In the case of YPHCTHISQQDPESDSQGQGNGLF [G6H], the protein stability index was 3.62.

On to YPHCTNISQQDPESDSQGQGNGLF [G6N], for which the protein stability index came to 3.56.

For YPHCTTISQQDPESDSQGQGNGLF [G6T], the protein stability index turned out to be 3.51.

As for YPHCTCISQQDPESDSQGQGNGLF [G6C], the protein stability index is 2.46.

As for YPHCTVISQQDPESDSQGQGNGLF [G6V], the protein stability index stood at 4.17.

For YPHCTEISQQDPESDSQGQGNGLF [G6E], the protein stability index came to 4.46.

Regarding YPHCTWISQQDPESDSQGQGNGLF [G6W], the protein stability index is 2.87.

With YPHCTGISQDDPESDSQGQGNGLF [Q10D], the protein stability index was 3.68.

Turning to YPHCTGISQFDPESDSQGQGNGLF [Q10F], the protein stability index came to 3.19.

As to YPHCTGISQEDPESDSQGQGNGLF [Q10E], the protein stability index worked out at 3.87.

Consider YPHCTGISQGDPESDSQGQGNGLF [Q10G], for which the protein stability index came to 3.88.

As for YPHCTGISQADPESDSQGQGNGLF [Q10A], the protein stability index was 3.48.

In the case of YPHCTGISQCDPESDSQGQGNGLF [Q10C], the protein stability index was 3.1.
